# In the supplement of paper PMC6379048:
# How the values were obtained:
# Assay in all cases: Kd (EC50 corrected by depletion factor)
# PUF60 = molecular target: T1, PUF60 (UniProt Q9UHX1)
# T1 sequence: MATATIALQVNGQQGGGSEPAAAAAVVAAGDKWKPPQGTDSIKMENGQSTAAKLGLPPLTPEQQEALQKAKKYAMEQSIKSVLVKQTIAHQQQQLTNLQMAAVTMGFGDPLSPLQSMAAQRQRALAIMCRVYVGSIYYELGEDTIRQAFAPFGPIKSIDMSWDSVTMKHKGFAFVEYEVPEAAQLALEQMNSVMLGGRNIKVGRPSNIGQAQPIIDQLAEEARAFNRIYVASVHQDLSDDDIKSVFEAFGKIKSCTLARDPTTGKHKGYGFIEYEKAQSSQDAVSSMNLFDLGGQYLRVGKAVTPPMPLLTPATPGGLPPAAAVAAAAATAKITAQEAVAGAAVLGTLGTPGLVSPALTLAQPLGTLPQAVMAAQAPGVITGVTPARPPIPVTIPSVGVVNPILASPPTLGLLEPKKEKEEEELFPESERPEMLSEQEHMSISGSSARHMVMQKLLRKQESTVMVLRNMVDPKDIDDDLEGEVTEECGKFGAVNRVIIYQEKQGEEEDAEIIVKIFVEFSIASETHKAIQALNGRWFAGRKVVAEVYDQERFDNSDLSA
# Method in brief: (§1)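 To obtain EC50, data were fitted with a four-parameter log-logistic model; Kd was then EC50 multiplied by a protein-dependent depletion factor. Beforehand, free RNA oligos (0 nM to 30 μM) were pre-incubated with HEK293-FT lysate (2.5 mg protein/well) for 1 h at 4°C. The lysate then spent 30 min at 4°C with the same 5′-amino-C6 oligos coupled to NHS-Sepharose beads, and bound proteins were quantified by label-free LC-MS/MS, normalised to the control.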
# PARP12 = molecular target: T2, PARP12 (UniProt Q9H0J9)
# T2 sequence: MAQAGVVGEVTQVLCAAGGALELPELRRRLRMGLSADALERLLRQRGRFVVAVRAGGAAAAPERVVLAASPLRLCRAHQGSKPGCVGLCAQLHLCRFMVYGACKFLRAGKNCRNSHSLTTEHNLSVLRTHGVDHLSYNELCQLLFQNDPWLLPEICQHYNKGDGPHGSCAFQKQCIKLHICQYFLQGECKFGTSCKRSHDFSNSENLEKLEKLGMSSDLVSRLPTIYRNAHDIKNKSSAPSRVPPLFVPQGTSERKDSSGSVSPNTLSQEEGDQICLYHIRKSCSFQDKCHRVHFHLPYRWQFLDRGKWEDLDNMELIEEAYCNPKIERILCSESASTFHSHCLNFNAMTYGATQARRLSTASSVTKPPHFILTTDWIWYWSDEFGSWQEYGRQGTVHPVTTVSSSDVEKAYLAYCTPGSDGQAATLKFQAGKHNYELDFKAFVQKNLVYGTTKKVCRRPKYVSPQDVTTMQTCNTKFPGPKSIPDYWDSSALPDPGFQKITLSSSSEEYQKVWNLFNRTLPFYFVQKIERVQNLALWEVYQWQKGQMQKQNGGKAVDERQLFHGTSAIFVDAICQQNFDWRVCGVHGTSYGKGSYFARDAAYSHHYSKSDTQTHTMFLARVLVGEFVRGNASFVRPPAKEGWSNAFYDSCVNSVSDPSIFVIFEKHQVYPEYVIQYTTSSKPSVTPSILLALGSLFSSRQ
# Method in brief: as §1
# HNRNPF = molecular target: T3, HNRNPF (UniProt P52597)
# T3 sequence: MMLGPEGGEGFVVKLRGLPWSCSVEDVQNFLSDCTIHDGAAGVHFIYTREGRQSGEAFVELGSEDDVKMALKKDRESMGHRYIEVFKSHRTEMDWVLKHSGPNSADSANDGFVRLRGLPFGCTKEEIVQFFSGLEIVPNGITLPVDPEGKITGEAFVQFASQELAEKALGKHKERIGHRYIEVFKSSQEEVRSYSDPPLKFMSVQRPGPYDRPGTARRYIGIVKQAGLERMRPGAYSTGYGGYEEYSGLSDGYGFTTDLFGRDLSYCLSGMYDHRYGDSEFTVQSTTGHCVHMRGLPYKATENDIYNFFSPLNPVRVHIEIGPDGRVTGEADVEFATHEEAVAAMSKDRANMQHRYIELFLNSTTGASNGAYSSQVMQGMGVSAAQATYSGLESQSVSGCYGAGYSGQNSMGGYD
# Method in brief: as §1
# TUBB4B = TUBB4B (UniProt P68371)
# TUBB4B, sequence (P68371 whole entry): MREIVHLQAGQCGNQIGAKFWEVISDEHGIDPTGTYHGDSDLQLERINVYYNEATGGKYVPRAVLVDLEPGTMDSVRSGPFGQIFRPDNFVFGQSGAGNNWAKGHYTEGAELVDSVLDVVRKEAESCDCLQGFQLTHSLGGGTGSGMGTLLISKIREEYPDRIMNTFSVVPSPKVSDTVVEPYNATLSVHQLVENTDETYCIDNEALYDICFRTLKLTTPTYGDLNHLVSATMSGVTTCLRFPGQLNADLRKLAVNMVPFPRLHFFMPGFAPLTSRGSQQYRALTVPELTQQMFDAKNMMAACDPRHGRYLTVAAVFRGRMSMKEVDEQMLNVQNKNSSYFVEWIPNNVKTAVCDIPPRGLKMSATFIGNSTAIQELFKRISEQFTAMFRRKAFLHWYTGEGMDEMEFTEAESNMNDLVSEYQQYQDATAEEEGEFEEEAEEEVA
# Method in brief: as §1
# MRPL50 = MRPL50 (UniProt Q8N5N7)
# Method in brief: as §1
# MRPL11 = MRPL11 (UniProt Q9Y3B7)
# Method in brief: as §1
# MRPS2 = MRPS2 (UniProt Q9Y399)
# Method in brief: as §1
# ZCRB1 = molecular target: T4, ZCRB1 (UniProt Q8TBF4)
# T4 sequence: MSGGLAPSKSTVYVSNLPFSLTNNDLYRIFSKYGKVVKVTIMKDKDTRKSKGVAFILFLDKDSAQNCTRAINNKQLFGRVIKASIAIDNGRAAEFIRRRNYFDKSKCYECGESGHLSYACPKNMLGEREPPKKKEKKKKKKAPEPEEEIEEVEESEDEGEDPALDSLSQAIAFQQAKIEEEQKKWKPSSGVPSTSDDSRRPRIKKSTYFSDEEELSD
# Method in brief: as §1
# TSN = TSN (UniProt Q15631)
# TSN, sequence (Q15631 whole entry): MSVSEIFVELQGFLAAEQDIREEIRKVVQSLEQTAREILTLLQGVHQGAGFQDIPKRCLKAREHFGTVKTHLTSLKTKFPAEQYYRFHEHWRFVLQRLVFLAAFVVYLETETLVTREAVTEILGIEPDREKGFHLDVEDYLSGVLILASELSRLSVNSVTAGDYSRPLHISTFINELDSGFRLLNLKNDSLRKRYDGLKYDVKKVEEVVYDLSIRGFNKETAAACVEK
# Method in brief: as §1
# SKIV2L = SKIV2L (UniProt Q15477)
# SKIV2L, sequence (Q15477 whole entry): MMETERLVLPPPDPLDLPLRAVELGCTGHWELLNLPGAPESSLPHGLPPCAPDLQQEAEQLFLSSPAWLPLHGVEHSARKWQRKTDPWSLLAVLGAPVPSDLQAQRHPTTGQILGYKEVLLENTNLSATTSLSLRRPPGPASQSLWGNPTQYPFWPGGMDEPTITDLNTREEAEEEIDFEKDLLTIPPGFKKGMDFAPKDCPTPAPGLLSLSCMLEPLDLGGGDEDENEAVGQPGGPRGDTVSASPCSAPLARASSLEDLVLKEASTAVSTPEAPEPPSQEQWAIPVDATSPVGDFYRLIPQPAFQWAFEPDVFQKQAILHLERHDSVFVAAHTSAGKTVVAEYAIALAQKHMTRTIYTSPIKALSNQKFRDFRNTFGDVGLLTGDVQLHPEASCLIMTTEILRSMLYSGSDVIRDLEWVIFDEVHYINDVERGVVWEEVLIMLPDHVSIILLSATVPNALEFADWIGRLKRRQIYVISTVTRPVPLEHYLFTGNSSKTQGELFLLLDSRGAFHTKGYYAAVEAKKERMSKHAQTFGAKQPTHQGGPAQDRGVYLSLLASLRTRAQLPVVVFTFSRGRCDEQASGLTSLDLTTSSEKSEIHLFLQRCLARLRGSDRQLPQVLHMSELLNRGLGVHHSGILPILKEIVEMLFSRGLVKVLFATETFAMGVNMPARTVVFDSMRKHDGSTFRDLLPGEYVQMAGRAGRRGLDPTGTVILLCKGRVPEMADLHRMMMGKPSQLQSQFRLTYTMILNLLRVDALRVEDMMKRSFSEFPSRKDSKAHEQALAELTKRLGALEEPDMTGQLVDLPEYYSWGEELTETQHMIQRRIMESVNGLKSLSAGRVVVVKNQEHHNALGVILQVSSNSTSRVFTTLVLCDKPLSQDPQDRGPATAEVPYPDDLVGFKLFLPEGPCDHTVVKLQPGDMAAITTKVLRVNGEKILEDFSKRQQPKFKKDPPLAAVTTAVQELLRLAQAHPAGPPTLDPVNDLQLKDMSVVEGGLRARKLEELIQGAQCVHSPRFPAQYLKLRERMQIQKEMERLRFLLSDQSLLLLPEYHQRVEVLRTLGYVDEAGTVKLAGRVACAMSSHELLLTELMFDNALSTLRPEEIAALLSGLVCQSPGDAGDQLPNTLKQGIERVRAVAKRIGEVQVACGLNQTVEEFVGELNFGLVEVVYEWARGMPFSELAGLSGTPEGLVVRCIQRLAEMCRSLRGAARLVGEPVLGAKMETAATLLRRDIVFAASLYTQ
# Method in brief: as §1
sequence,measurement,setting,value
AAUAAA,Kd,PUF60,162 nM
same,Kd,PARP12,5400 nM
same,Kd,HNRNPF,6290 nM
same,Kd,TUBB4B,2430 nM
CUGUCCU,Kd,MRPL50,149 nM
same,Kd,MRPL11,53.7 nM
UAUUUAU,Kd,MRPS2,27.7 nM
same,Kd,ZCRB1,3450 nM
same,Kd,TSN,16.8 nM
same,Kd,SKIV2L,902 nM
